Laboratory results as given in publication PMC3362532, “Targeting Melanoma Metastasis and Immunosuppression with a New Mode of Melanoma Inhibitory Activity (MIA) Protein Inhibition” (PLoS ONE, 2012).

Experiments:
[1] = target: T1, human MIA protein labelled for the HTFP assay (MIA-biotin conjugate immobilised; MIA-Ru(bpy)3 in solution) (human, UniProt Q16674 25-131, Ru(bpy)3 (from Ru(bpy)3-isothiocyanate) on the copy in solution; biotin on the immobilised copy; sites not stated); experiment: fluorescence polarisation; heterogeneous transition-metal-based fluorescence polarization (HTFP) assay: MIA-biotin immobilised in streptavidin-coated 96 well plates, MIA-Ru(bpy)3 in solution, RT, 250 uL per well, P/P0 against a well without MIA-biotin; peptides at 1.6 uM; details: both partners purified
T1 construct: human MIA protein; source: human MIA protein labeled with Ru(bpy)3-isothiocyanate, purified over a size exclusion column (Sephadex G75 M PD-10)
T1 sequence (looked up): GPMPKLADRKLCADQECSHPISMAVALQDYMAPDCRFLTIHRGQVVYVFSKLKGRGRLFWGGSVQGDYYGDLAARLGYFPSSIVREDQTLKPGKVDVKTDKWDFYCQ

[2] = target: T2, recombinant human MIA, wild type (human, UniProt Q16674 25-131); experiment: NMR titration; 2D 1H-15N HSQC of uniformly 15N-enriched MIA with increasing amounts of AR71, 300 K, pH 7; details: both partners purified
T2 construct: The printed residue numbers (C17, C106) fit the mature protein without its signal peptide; The vector may add a His tag; also called wt MIA; wild-type (wt) MIA; source: in vitro expression, Rapid Translation System RTS 500 E. coli HY Disulfide Kit (cell free)
T2 sequence (looked up): T1 sequence (looked up)

binding result [1]: binds
binding result [2]: binds
B1: dodecapeptide AR71 (peptide)
peptide: Ac-FHWRYPLPLPGQ-NH2
